Measurements: the supplement of paper PMC12764529
± gives the half width of the 95% confidence interval.

Assays:
[1] = folding stability dG unfold (combined trypsin and chymotrypsin); higher = more stable
In short: (§1)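 How resistant each design was to proteolysis was captured as K50, inferred by Bayesian fitting of sequencing counts. Unfolding free energy was then derived relative to a sequence-predicted unfolded-state K50 and a shared folded-state K50, per protease or combined. Digestion used trypsin and chymotrypsin at 11 threefold-diluted concentrations plus a no-protease condition, on mini-proteins under 80 residues without cysteine in a PA-tagged cDNA display construct. Designs were kept only when AlphaFold2 dimer inter-PAE was above 15.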

[2] = folding stability dG unfold from chymotrypsin proteolysis; higher = more stable
In short: as §1

[3] = folding stability dG unfold from trypsin proteolysis; higher = more stable
In short: as §1

Sequence	folding stability dG unfold [1]	folding stability dG unfold [2]	folding stability dG unfold [3]
SAGGSSVTTTVSEETLPDGLRLLTTTTTTTTVPGKPDLRITTVTTTALDPVTGETTAVGTSTTVVAPSAGGS [r8_65_JUSTAS]	0.63 ± 0.086 kcal/mol	0.796 ± 0.027 kcal/mol	0.311 ± 0.038 kcal/mol
SAGGSSYSVAQSPGPARLYSVPQPDGRVVEVDVEELPGGLLRVRVPDDPVPRLFPASLSLADIVSLSAGGSA [r2_338_JUSTAS]	0.866 ± 0.032 kcal/mol	0.933 ± 0.046 kcal/mol	0.644 ± 0.02 kcal/mol
SAGGSTIENPNGWRIEIDIIPIKVVYRKDPNGKPKEPVAPPVWIIHIKIEFPDKNGEKKEATFMLFSAGGSA [r2_218_TrROS]	4.06 ± 0.13 kcal/mol	4.61 ± 0.056 kcal/mol	2.62 ± 0.069 kcal/mol
SAGGSTLEEIKAAVIKAAEAGEKEAEIEAPLPDGGKLRILKGGVIEFIPEDGVPKRLKISVSEIKVSAGGSA [r2_97_TrMRF]	0.0476 ± 0.26 kcal/mol	0.451 ± 0.36 kcal/mol	-1.2 ± 0.75 kcal/mol
SAGGSTVAKKTTEKDPNSDTTTVTITFPETGVKLTVTVPPGGETTVTLNNGSPPTTLTLPLSVLKLLSAGGS [r8_238_JUSTAS]	0.612 ± 0.077 kcal/mol	0.87 ± 0.067 kcal/mol	0.192 ± 0.077 kcal/mol
SAGGSVDVSYDPSTGVVTVTIPSPTGSIGEEEVERVARELKEKYPNVTVSFTPSPGPAVTVTITIPGGSAGG [r13_291_JUSTAS]	2.08 ± 0.074 kcal/mol	2.24 ± 0.042 kcal/mol	1.71 ± 0.07 kcal/mol
SAGGSVEEIAERLAKELAPPDERVEVEVEEIVTDPVVGKIKEVKIKATIYPPDGTTRTVEYTIPYDELSAGG [r13_215_JUSTAS]	0.612 ± 0.056 kcal/mol	0.704 ± 0.028 kcal/mol	0.407 ± 0.029 kcal/mol
SAGGSVEVTKTESKGPGGTVTVEALKTVTKFDEKGNPVKEEEVRITRTETYDPNTGKVTTTTTVEGSAGGSA [r2_220_JUSTAS]	0.487 ± 0.067 kcal/mol	0.709 ± 0.018 kcal/mol	-0.0891 ± 0.061 kcal/mol
SAGGSVFESEKDLRVEVYKIKVGTTLGKEKNGKPKKPKFKEKEVLVVKVEVPLEDGTTLSAEFTFGSAGGSA [r2_218_TrMRF]	2.52 ± 0.26 kcal/mol	3.24 ± 0.073 kcal/mol	1.25 ± 0.13 kcal/mol
SAGGSVKQIALRIARDMGYPNVKVEEIPIEKTPNGWVQIPITVEHPKDGKPIGPFQIHIRPGDPIVSAGGSA [r2_137_TrROS]	0.731 ± 0.29 kcal/mol	0.602 ± 0.27 kcal/mol	1.17 ± 0.24 kcal/mol
SAGGSVPERAKVVTLVLRFEEPESLGIPLLERLLRELGFPDAVLGEVRIEPLPDGSVVAVVPLLVPSAGGSA [r2_346_TrMRF]	2.91 ± 0.059 kcal/mol	3.196 ± 0.02 kcal/mol	2.42 ± 0.041 kcal/mol
SAGGSVTLSAEFTLPDGSRVRLTVEVLPDGTLRVSAEVEAVPLVPPVRVSRLPDGSLVSDPLGVPLVLSAGG [r13_151_TrMRF]	1.57 ± 0.15 kcal/mol	1.31 ± 0.11 kcal/mol	1.82 ± 0.046 kcal/mol
SAGGSWRVSVQFPDGKKIKIPEEPIQKIIQEYGIPPDPGDPERMVERIANRIADKYGYPVKNIEIDSAGGSA [r2_83_TrROS]	0.0663 ± 0.15 kcal/mol	0.385 ± 0.13 kcal/mol	-0.377 ± 0.42 kcal/mol
SAGGSWTIDIDPEKVKEVEHKRNPNGMNEHRLELPNKNGKKREVKIPMGMKSPEDALDEIRELLGKSAGGSA [r2_347_TrROS]	0.331 ± 0.39 kcal/mol	0.663 ± 0.32 kcal/mol	0.167 ± 0.25 kcal/mol
SAGGTAEEIVEALKEAGIPVLSIEPNSDGTYTITVGGPDGTPFTIEISSANPADLAALKEAIPEEVSSAGGS [r16_821_TrMRF]	3.86 ± 0.12 kcal/mol	4.01 ± 0.072 kcal/mol	3.35 ± 0.22 kcal/mol
SAGGTIFIPWEEAEEFIENAFENGEDIEIEFFLDDGWWYKFTITGPDIDLRVVEVVPMPPPPEDPGKKSAGG [r13_839_TrROS]	2.34 ± 0.11 kcal/mol	2.82 ± 0.042 kcal/mol	0.836 ± 0.056 kcal/mol
SAGGTIYIFIPGLTAEEILKFIAEEFPGHENVTIFWPKGYYVKITVDNGNIKIDKVQPMRPMPPGDPSAGGS [r8_225_TrROS]	2.99 ± 0.084 kcal/mol	3.31 ± 0.026 kcal/mol	2.52 ± 0.073 kcal/mol
SAGGTKTINIKNMPPNDPERMVRTARHLLKELKQKGPGKTITIHMDNPWAREVAEYLKKEGIPIEVHSAGGS [r16_450_TrROS]	0.947 ± 0.14 kcal/mol	1.09 ± 0.15 kcal/mol	0.581 ± 0.17 kcal/mol

Sequence	folding stability dG unfold [1]	folding stability dG unfold [2]	folding stability dG unfold [3]
SAGGTLKVTEEEVSESEFESPGLPLRRTTTTYTLVDPVTGKPVPTSKKVTVETLETPEGRVLETVVTSSAGG [r13_24_JUSTAS]	-0.0697 ± 0.13 kcal/mol	0.0434 ± 0.14 kcal/mol	-0.45 ± 0.24 kcal/mol
SAGGTRTIWFPVDDIREALPPDNIKKVEVEPVGPENNWYKVTIEFPDYKIEIQYYPEEPGMFMVTITDSAGG [r13_942_TrROS]	2.13 ± 0.29 kcal/mol	2.71 ± 0.043 kcal/mol	0.791 ± 0.085 kcal/mol
SAGGTVEEIKEKLEEAGWEVVKVEKKEDGSITVTVRRKDGKELKIEIDLKNEEVRKALAELLPEEELSAGGS [r16_821_TrROS_Hall]	2.95 ± 0.15 kcal/mol	3.22 ± 0.13 kcal/mol	2.42 ± 0.19 kcal/mol
SAGGTVTLTLELTVKVKRKDGKTETKKVTLTITVEVKEGETVYTPDGKKIKPGKSAEELAKELLKKLSAGGS [r16_440_TrROS_Hall]	1.27 ± 0.32 kcal/mol	1.28 ± 0.12 kcal/mol	1.17 ± 0.089 kcal/mol
SAGGTVTTEEVDDATYITVTKPSGETLTITAPALPDDTYLVTVYDPKTGKSTTKTVSSLDEAIKLLGSAGGS [r8_230_JUSTAS]	2.08 ± 0.098 kcal/mol	1.83 ± 0.019 kcal/mol	2.2 ± 0.076 kcal/mol
SAGGVIMIPADEILDMIEQNPDEPKTIFARPNNRMVMFTLKIDPDKPDNIEIDNVWRYDPNGKGEHLPSAGG [r13_481_TrROS]	-0.365 ± 0.22 kcal/mol	-0.475 ± 0.31 kcal/mol	-0.526 ± 0.47 kcal/mol
SAGGVITAEQLRDLVKTLPPDYTIRVKVYYSTSTEEYTITPDNPIKFPPNAPTETITRIEVVEISPDSAGGS [r16_97_TrMRF]	4.33 ± 0.068 kcal/mol	4.43 ± 0.045 kcal/mol	3.87 ± 0.088 kcal/mol
SAGGVLPSDPVTVTVTIPVPAANAETDGRLPPQPQTINLEIGGPSEEAIRALLEALFPPGTEYEILLSAGGS [r16_282_JUSTAS]	1.32 ± 0.06 kcal/mol	0.691 ± 0.034 kcal/mol	1.77 ± 0.064 kcal/mol
SAGGVPVPPEVEYPISPEAVELAEKLAPELGAKNFKVTVVSVEPGYITVEITLPDTGKTVTVTIPLGSAGGS [r16_281_JUSTAS]	1.82 ± 0.053 kcal/mol	1.987 ± 0.015 kcal/mol	1.5 ± 0.041 kcal/mol
SAGGVRYRNPLTGVEIPPDATEEERAAIARAVAKPVVLPVTVPVYVEEGDVVVPVERTFHVPLGPDGSAGGS [r16_387_TrMRF]	0.206 ± 0.083 kcal/mol	0.0948 ± 0.12 kcal/mol	0.22 ± 0.085 kcal/mol
SAGGVTVSLSDPLSGNITTVPVAPNSTVTVTTSASLGGPNYTITTTVTVTLNGSTPVFTITSTVTPLSSAGG [r19_331_JUSTAS]	3.41 ± 0.17 kcal/mol	3.54 ± 0.071 kcal/mol	3.08 ± 0.16 kcal/mol
SAGGVVEVEVPDLSLEEALERVREEYPDVPEFTLTLPSGERVEFRVEGDRVEVVRREPLGPRPPELESAGGS [r8_225_JUSTAS]	1.54 ± 0.066 kcal/mol	1.51 ± 0.029 kcal/mol	1.63 ± 0.1 kcal/mol
SAGGVVTFLPGNLIKTTYFDPEKGTRTETLYYVPPDGTTTKLKTTVTPIPPTPLERPFFFGPDDVPVLSAGG [r13_646_JUSTAS]	0.474 ± 0.15 kcal/mol	0.306 ± 0.21 kcal/mol	0.517 ± 0.059 kcal/mol
SAGGVVYYATFTIYDPKRKLPNGELAYEETPIYKKFDPKEIEKFIKELKDKLKKEGRKIKAEITKVLSAGGS [r8_10_JUSTAS]	1.45 ± 0.4 kcal/mol	1.77 ± 0.29 kcal/mol	1.28 ± 0.15 kcal/mol
SAGGVWIEITFLMPAEQLLNFIKNLAEEFGYQVNIDVKIQPYPNGPMVTHEIEIKPLPPKVPEEDQESAGGS [r16_262_TrROS]	3.6 ± 0.16 kcal/mol	3.99 ± 0.1 kcal/mol	2.5 ± 0.13 kcal/mol
SAGGWFTWDIPVKADDPKEAVDYAKEQIKNIMREHHPGMPPGMKIDDIKVEPPPNGWYWVKITIEIDPPSAG [r5_320_TrROS]	2.29 ± 0.15 kcal/mol	2.59 ± 0.083 kcal/mol	1.83 ± 0.083 kcal/mol
SAGGWQKVEFMIEIPGGGSLDQAKDEVEEFADYLRKKAGFKDVDVDVQVDPDGWVYVMVEIEVPPNASAGGS [r8_3_TrROS]	1.87 ± 0.062 kcal/mol	2.24 ± 0.042 kcal/mol	1.06 ± 0.04 kcal/mol
SAGGWYIRIKEIERNNDGVNIDIQIPDPDDPEFFENIAENLAQKLGMPKENIKIRIEPTPMPPDPEEPSAGG [r13_430_TrROS]	0.247 ± 0.23 kcal/mol	0.0789 ± 0.35 kcal/mol	0.248 ± 0.13 kcal/mol
